Four molecules from PMC8809517, “Cofactor-independent RNA editing by a synthetic S-type PPR protein” can be followed below.

Holding throughout (experiment): high-throughput RNA pulldown from lysate on Ni-NTA beads; HRP: 50 mM Tris pH 8, 150 mM NaCl, 1 mM beta-mercaptoethanol, 50 ug/ml BSA, 3 ug/ml yeast RNA, 0.5% heparin; ITC and FP: Tris pH 8, 200 mM KCl, 5% glycerol; MST: 50 mM Tris pH 8, 200 mM NaCl, 1 mM DTT, BSA, heparin, 0.05% Tween 20
Common to all, as to conditions: tags: N-terminal His-eGFP

Series [1] has as its target T1, GFP-9S library array, motif 4 ND N98G;D124A (synthetic construct, N98G;D124A).
T1 chain: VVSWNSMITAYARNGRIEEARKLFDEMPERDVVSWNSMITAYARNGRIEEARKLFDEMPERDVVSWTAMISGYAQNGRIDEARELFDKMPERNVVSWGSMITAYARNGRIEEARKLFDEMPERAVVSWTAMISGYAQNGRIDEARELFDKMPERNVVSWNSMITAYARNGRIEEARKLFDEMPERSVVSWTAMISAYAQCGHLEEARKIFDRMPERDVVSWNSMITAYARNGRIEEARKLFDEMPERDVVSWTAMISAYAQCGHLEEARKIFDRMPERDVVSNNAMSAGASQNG

For series [2], the target named is T2, GFP-9S library array, motif 4 ND N98S;D124T (synthetic construct, N98S;D124T).
T2 chain: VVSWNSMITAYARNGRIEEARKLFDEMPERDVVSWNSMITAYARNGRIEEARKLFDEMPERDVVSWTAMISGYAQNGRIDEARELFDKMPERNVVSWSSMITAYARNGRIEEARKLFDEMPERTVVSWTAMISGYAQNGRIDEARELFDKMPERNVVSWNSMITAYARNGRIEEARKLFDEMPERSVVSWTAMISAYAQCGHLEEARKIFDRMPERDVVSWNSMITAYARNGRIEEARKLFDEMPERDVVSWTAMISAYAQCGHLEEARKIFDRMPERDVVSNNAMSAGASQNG

The target in series [3] is T3, GFP-9S library array, motif 4 ND N98R;D124K (synthetic construct, N98R;D124K).
T3 chain: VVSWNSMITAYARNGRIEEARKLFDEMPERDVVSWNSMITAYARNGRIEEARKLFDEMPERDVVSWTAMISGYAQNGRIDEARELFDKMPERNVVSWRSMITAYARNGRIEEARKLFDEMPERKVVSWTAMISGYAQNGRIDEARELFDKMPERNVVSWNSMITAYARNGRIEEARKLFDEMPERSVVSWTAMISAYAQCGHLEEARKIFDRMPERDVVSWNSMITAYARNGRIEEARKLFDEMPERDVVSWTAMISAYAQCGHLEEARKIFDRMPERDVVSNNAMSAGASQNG

For series [4], the target named is T4, GFP-9S library array, motif 4 ND N98G;D124Q (synthetic construct, N98G;D124Q).
T4 chain: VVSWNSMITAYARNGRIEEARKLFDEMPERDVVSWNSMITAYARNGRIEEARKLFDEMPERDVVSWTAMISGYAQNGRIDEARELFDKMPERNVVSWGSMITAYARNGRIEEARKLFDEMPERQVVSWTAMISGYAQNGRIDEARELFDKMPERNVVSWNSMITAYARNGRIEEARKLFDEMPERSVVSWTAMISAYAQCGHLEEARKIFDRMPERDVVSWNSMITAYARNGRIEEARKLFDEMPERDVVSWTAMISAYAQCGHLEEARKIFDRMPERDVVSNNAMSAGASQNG

The target of series [5] is T5, GFP-9S library array, motif 4 ND N98H;D124L (synthetic construct, N98H;D124L).
T5 chain: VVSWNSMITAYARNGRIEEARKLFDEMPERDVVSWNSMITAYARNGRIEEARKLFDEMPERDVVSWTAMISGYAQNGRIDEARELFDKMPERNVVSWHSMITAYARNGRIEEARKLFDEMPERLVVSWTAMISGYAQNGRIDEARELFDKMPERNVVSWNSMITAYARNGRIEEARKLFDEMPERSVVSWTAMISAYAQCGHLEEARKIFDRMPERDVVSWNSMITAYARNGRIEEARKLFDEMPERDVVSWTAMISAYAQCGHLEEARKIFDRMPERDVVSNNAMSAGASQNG

B1: IR-rpoA-U (ssRNA)
RNA: AUUAUACGUGA
The Kd is the constant that tells how readily two partners part at equilibrium. Turning to B1, the Kd in series [1] (label: 5' IRDye 800CW) was 175 nM; in series [2] (label: 5' IRDye 800CW), 108 nM; in series [3] (label: 5' IRDye 800CW), 202 nM; in series [4] (label: 5' IRDye 800CW) it was 142 nM; in series [5] (label: 5' IRDye 800CW), 32.7 nM.

B2: IR-rpoA-A (ssRNA)
RNA: AUUAAACGUGA
Consider B2, for which the Kd stood at 133 nM in series [1] (label: 5' IRDye 800CW); 72.3 nM in series [2] (label: 5' IRDye 800CW); 420 nM in series [3] (label: 5' IRDye 800CW); 150 nM in series [4] (label: 5' IRDye 800CW); 82.1 nM in series [5] (label: 5' IRDye 800CW).

B3: Cy5-rpoA-G (ssRNA)
RNA: AUUAGACGUGA
On to B3, for which the Kd amounted to 101 nM in series [1] (label: 5' Cy5); 291 nM in series [2] (label: 5' Cy5); 161 nM in series [3] (label: 5' Cy5); 109 nM in series [4] (label: 5' Cy5); 55.6 nM in series [5] (label: 5' Cy5).

B4: Cy5-rpoA (ssRNA)
RNA: AUUACACGUGA
B4: the Kd came to 124 nM in series [1] (label: 5' Cy5); 187 nM in series [2] (label: 5' Cy5); 136 nM in series [3] (label: 5' Cy5); 96.6 nM in series [4] (label: 5' Cy5); 60.1 nM in series [5] (label: 5' Cy5).
